Blank lines part the entries; values can stand above or below the binder they belong to.
Target: Fc fragment of IgE (domains Cε2-4) (human)
Test: SPR

Fc fragment of IgE (domains Cε2-4) (human), sequence (P01854 whole entry, the tested form may be a part): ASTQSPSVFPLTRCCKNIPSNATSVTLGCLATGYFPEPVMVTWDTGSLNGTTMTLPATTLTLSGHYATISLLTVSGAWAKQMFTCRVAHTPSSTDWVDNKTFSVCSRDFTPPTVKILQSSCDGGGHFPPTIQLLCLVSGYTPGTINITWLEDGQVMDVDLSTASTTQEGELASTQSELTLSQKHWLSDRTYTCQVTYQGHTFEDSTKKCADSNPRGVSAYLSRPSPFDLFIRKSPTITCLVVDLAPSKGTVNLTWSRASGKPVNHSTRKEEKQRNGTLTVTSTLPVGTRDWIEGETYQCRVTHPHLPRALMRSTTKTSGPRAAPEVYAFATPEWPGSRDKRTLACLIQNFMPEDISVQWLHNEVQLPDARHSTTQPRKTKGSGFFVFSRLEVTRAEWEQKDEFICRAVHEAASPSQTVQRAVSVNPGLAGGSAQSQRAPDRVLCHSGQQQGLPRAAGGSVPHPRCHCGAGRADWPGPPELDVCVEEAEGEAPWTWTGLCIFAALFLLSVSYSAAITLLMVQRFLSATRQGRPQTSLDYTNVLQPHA

KD, first of two components: 1100 nM | KD, second of two components: 39 nM | koff, major component: 0.0005 s⁻¹ | koff, minor component: 0.04 s⁻¹
B1: exCD23, recombinant soluble CD23 fragment containing the entire extracellular sequence (domain or fragment)
chain: DTTQSLKQLEERAARNVSQVSKNLESHHGDQMAQKSQSTQISQELEELRAEQQRLKSQDLELSWNLNGLQADLSSFKSQELNERNEASDLLERLREEVTKLRMELQVSSGFVCNTCPEKWINFQRKCYYFGKGTKQWVHARYACDDMEGQLVSIHSPEEQDFLTKHASHTGSWIGLRNLDLKGEFIWVDGSHVDYSNWAPGEPTSRSQGEDCVMMRGSGRWNDAFCDRKLGAWVCDRLATCTPPASEGSAESMGPDSRPDPDGRLPTPSAPLHS

Kd: 1300 nM
B2: derCD23, recombinant version of the Der p I fragment of human CD23 (FcεRII), C-type lectin domain (domain or fragment)
chain: SGFVCNTCPEKWINFQRKCYYFGKGTKQWVHARYACDDMEGQLVSIHSPEEQDFLTKHASHTGSWIGLRNLDLKGEFIWVDGSHVDYSNWAPGEPTSRSQGEDCVMMRGSGRWNDAFCDRKLGAWVCDRLATCTPPASEGSAE

— publication PMC2212946
